Source: PMC4278767

Legend:
[1] = test system: T1, Fis (Pseudomonas putida (strain PaW85?)), ORF:eb421da7; test: EMSA; conditions: EMSA: 24 mM Tris/HCl pH 7.5, 50 mM KCl, 10 mM MgCl2, 1 mM CaCl2, 0.1 mM EDTA, 5% glycerol, 0.05 ug/ul BSA, 0.05 ug/ul salmon sperm DNA, 20 ul, 20 min room …
T1 sequence: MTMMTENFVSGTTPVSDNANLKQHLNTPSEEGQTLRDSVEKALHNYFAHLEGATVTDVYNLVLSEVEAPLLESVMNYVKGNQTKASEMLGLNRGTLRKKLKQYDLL

[2] = test system: T1, Fis (Pseudomonas putida (strain PaW85?)), ORF:eb421da7; test: DNase I footprinting; conditions: EMSA: 24 mM Tris/HCl pH 7.5, 50 mM KCl, 10 mM MgCl2, 1 mM CaCl2, 0.1 mM EDTA, 5% glycerol, 0.05 ug/ul BSA, 0.05 ug/ul salmon sperm DNA, 20 ul, 20 min room …

With “CGTAACAGAGCCCTTTCAGGGGTCTTACGCACAGCCTCGACCAGGCAGTCGACAAACGGGTGGTTAGGGAGATATAGCAGCCGGTGGGGAAGCAACCAGATGGCTTTCTGGGTTAATCCTTTGGTAGAAAAGCCTCAGCGAAAGATCTA (double strand) [lapF promoter fragment with Fis-F2 (wild type)]” the binding [1] was “binds” and the binding [2] was “binds”.
